Data as given in patent publication US20220153851A1 (Five Prime, published 2022).
Where a chain is given by its changes, count along the chain named. Read-outs that look alike come from different tables or passages of the source.

B1: cAb 0311 (antibody, human IgG4 S228P, kappa, V domains shown)
VH: EIQLQQSGPDLMKPGASVKMSCKASGYIFTDYNMHWVKQNQGKSLEWMGEINPNNGVVVYNQKFKGTTTLTVDKSSSTAYMDLHSLTSEDSAVYYCTRALYHSNFGWYFDSWGKGTTLTVSS
VL: DIVLTQSPASLAVSLGQRATISCKASQSVDYDGDSHMNWYQQKPGQPPKLLIYTASNLESGIPARFSGSGSGADFTLTIHPVEEEDAATYYCQQGNEDPWTFGGGTRLEIKR
B2: cAb 0301 (antibody, human IgG4 S228P, kappa, V domains shown)
VH: EVQLQQSGPELVRPGASVKMSCKASGYTFTDNYMIWVKQSHGKSLEWIGDINPYNGGTTFNQKFKGKATLTVEKSSSTAYMQLNSLTSEDSAVYYCARESPYFSNLYVMDYWGQGTSVTVSS
VL: NIVLTQSPASLAVSLGQRATISCKASQSVDYDGDNYMNWYQQKPGQPPKLLIYAASNLESGIPARFSGSGSGTDFTLNIHPVEEEDAATYYCHLSNEDLSTFGGGTKLEIKR
B3: h0311-L0H1 (antibody, human IgG4 S228P, kappa, V domains shown)
VH: QVQLVQSGAEVKKPGSSVKVSCKASGYIFTDYNMHWVRQAPGQGLEWMGEINPNNGVVVYNQKFKGRVTITVDKSTSTAYMELSSLRSEDTAVYYCTRALYHSNFGWYFDSWGQGTLVTVSS
VL: EIVLTQSPATLSLSPGERATLSCKASQSVDYDGDSHMNWYQQKPGQAPRLLIYTASNLESGIPARFSGSGSGTDFTLTISSLEPEDFAVYYCQQGNEDPWTFGQGTKVEIKR
notes: also called Ab13; huAb 0311-L0H1
B4: h0311-L1H2 (antibody, human IgG4 S228P, kappa, V domains shown)
VH: B3 VH with R67T, V68T, I70L
VL: B3 VL with E1D, T73A
notes: also called Ab16; huAb 0311-L1H2
B5: h0302-L0H1 (antibody, human IgG4 S228P, kappa, V domains shown)
VH: QVQLVQSGAEVKKPGSSVKVSCKASGYTFSDFNIHWVRQAPGQGLEWMGYINPYTDVTVYNEKFKGRVTITSDKSTSTAYMELSSLRSEDTAVYYCASYFDGTFDYALDYWGQGTLVTVSS
VL: B3 VL with K24R, Q27E, Y31N, D32Y, D34L, H36F, G95S, N96K, D98L
notes: also called Ab7; huAb 0302-L0H1

Legend:
[1] = molecular target: T1, human CSF1R on CSF1R (SEQ ID NO: 2)-transfected CHO cells (human, UniProt P07333 20-972); assay: cell-based or functional assay
[2] = molecular target: T1, human CSF1R on CSF1R (SEQ ID NO: …); assay: cell-based or functional assay; remark: listed apart in the source
cynoCSF1R ECD-Fc [3] = molecular target: T2, cynoCSF1R ECD-Fc (cynomolgus); assay: ELISA, plate coated with cynoCSF1R ECD-Fc
T2 construct: also called cynomolgus CSF1R ECD
Procedure: (§1) Ninety-six well clear-bottom ELISA plates were coated overnight with 1 μg/ml recombinant hCSF1R ECD.506-Fc (SEQ ID NO: 6; FivePrime Therapeutics) or Human M-CSF R Fc Chimera (R&D Systems) in PBS. The next morning, wells were washed four times with 0.05% Tween20 in PBS (PBST) and blocked with Blocker-Blotto (Pierce). Fifty μl of 0.5× serial dilutions of the humanized antibody or parental chimeric antibody, beginning with 2000 ng/ml, diluted 1:1 in Blocker-Blotto were added to the CSF1R-coated wells. After incubation at room temperature (RT) for 90 min, wells were washed four times with PBST, and a 1:5000 dilution of a peroxidase-conjugated Goat anti-Human kappa Light chain antibody (Sigma) in Blocker-Blotto was added to each well. After incubation at RT for 60 min, wells were washed four times with PBST, and 50 μl o-phenylenediamine dihydrochloride peroxidase substrate (Sigma) was added to each well. After incubation at RT for 30 min, A450 values of each well were read directly on a SpectraMaxPlus spectrophotometer with SoftMaxPro software (Molecular Devices).
The binding curve for each humanized antibody binding to cynomolgus CSF1R ECD was determined as described above for human CSF1R, except the wells of the clear-bottom ELISA plates were coated overnight with 2 μg/ml recombinant cynoCSF1R ECD-Fc (FivePrime Therapeutics, SEQ ID NO: 8, but without the 19 amino acid leader sequence).

hCSF1R ECD.506-Fc = molecular target: T3, hCSF1R ECD.506-Fc (human); assay: ELISA, plate coated with human CSF1R ECD-Fc
T3 construct: also called human CSF1R ECD-Fc fusion protein; human CSF1R ECD
Procedure: as §1

cynoCSF1R ECD-Fc [4] = molecular target: T2, cynoCSF1R ECD-Fc; assay: competition ELISA, blocking of human CSF1 binding to cynoCSF1R ECD-Fc
Procedure: (§2) The humanized antibodies, along with the parental chimeric antibodies (cAbs), were tested for their ability to block human CSF1 binding to human and cynomolgus CSF1R ECD, as follows.
(§3) Recombinant Human CSF1 (M-CSF; R&D Systems) was biotinylated using an NH₂-Biotin Labeling Kit (Dojindo Molecular Technologies). One hundred μl of 1 μg/ml biotinylated CSF1 in PBST/0.1% BSA was added to the wells of Reacti-Bind Streptavidin coated plates (Pierce) pre-blocked with SuperBlock blocking buffer (Pierce) according to the manufacturer's instructions. Fifty μl of 0.5× serial dilutions of the humanized antibody or parental chimeric antibody, beginning with 2000 ng/ml, was incubated with 50 ng/ml hCSF1R ECD.506-Fc (SEQ ID NO: 6; FivePrime Therapeutics) or 50 ng/ml cynoCSF1R ECD-Fc (FivePrime Therapeutics, SEQ ID NO: 8, but without the 19 amino acid leader sequence) in 100 μl PBST/0.1% BSA for 90 min at RT, after which the admix was transferred to one or more wells of a ligand-coated plate. After 90 min at RT, wells were washed with PBST, and a 1:5000 dilution of an Fc-fragment-specific peroxidase-conjugated goat anti-human IgG (Jackson Immuno Research) in PBST/0.1% BSA was added to each well. After incubation at RT for 60 min, wells were washed with PBST/0.1% BSA, and o-phenylenediamine dihydrochloride peroxidase substrate (Sigma) was added to each well. After incubation at RT for 30 min, A450 values of each well were read directly on a SpectraMaxPlus spectrophotometer with SoftMaxPro software (Molecular Devices).

cynoCSF1R ECD-Fc [5] = molecular target: T2, cynoCSF1R ECD-Fc; assay: competition ELISA, blocking of human IL34 binding to cynoCSF1R ECD-Fc
mCSF1R ECD-Fc = molecular target: T4, mCSF1R ECD-Fc (mouse); assay: ELISA, plate coated with mCSF1R ECD-Fc, detection anti-human kappa-HRP, A450
T4 construct: also called mouse CSF1R ECD
Procedure: as §1
The binding curve for each humanized antibody binding to mouse CSF1R ECD was determined as described above for human CSF1R, except the wells of the clear-bottom ELISA plates were coated overnight with 2 μg/ml recombinant mCSF1R ECD-Fc (FivePrime Therapeutics, SEQ ID NO: 93).

[6] = molecular target: T1, human CSF1R on CSF1R (SEQ ID NO: …); assay: cell-based or functional assay; remark: listed apart in the source
cynoCSF1R ECD-Fc [7] = molecular target: T2, cynoCSF1R ECD-Fc; assay: competition ELISA, blocking of human CSF1 binding to cynoCSF1R ECD-Fc; blocking of human CSF1 binding to cynoCSF1R ECD
Procedure: as §2
as §3, with “After incubation at RT for 60 min, wells were washed with PBST/0.1% BSA, and o-phenylenediamine dihydrochloride peroxidase substrate (Sigma) was added to each well.” left out

[8] = molecular target: T1, human CSF1R on CSF1R (SEQ ID NO: …); assay: cell-based or functional assay; remark: listed apart in the source
hCSF1R ECD.506 = molecular target: T5, hCSF1R ECD.506 (human, UniProt P07333 20-506); assay: SPR Biacore T100, antibody captured on anti-human IgG, hCSF1R ECD.506 as analyte, 1:1 model
T5 construct: also called human CSF1R ECD
Procedure: The kₐ, kd, and KD for binding to human CSF1R ECD was determined for each of the humanized antibodies as follows.
Binding kinetics of anti-CSF1R humanized antibodies to CSF1R ECD was determined using Biacore T100 Surface Plasmon Resonance (SPR) (GE Healthcare Life Sciences, Piscataway, N.Y.). Each of the humanized anti-CSF1R antibodies was captured on a CM5 sensor chip immobilized with anti-Human IgG antibody using the Human antibody capture kit (GE Healthcare Life Sciences, Piscataway, N.Y.) at 150 RU so that the Rmax value for hCSF1R ECD.506 (SEQ ID NO: 5) binding was 100 RU. Rmax values of less than 150 RU are recommended for accurately determining kinetic values. […] The association constant, dissociation constant, affinity, and binding capacity of each of the Fabs for human CSF1R ECD was calculated using the Biacore T100 Evaluation software package using the 1:1 binding model.

[9] = molecular target: T1, human CSF1R on CSF1R (SEQ ID NO: …); assay: cell-based or functional assay; remark: listed apart in the source
[10] = molecular target: T1, human CSF1R on CSF1R (SEQ ID NO: …); assay: cell-based or functional assay; remark: listed apart in the source
cynoCSF1R ECD-Fc [11] = molecular target: T2, cynoCSF1R ECD-Fc; assay: competition ELISA, blocking of human IL34 binding to cynoCSF1R ECD-Fc (curve-fit value far beyond the range tested); blocking of human IL34 binding to cynoCSF1R ECD
Procedure: Recombinant Human CSF1 (M-CSF; R&D Systems) was biotinylated using an NH₂-Biotin Labeling Kit (Dojindo Molecular Technologies). One hundred μl of 1 μg/ml biotinylated CSF1 in PBST/0.1% BSA was added to the wells of Reacti-Bind Streptavidin coated plates (Pierce) pre-blocked with SuperBlock blocking buffer (Pierce) according to the manufacturer's instructions. […] After incubation at RT for 30 min, A450 values of each well were read directly on a SpectraMaxPlus spectrophotometer with SoftMaxPro software (Molecular Devices).
The humanized antibodies were tested for their ability to block human IL34 binding to human CSF1R ECD. The blocking activity of each humanized antibody was determined as described above for blocking of CSF1, except recombinant human IL34 (FivePrime Therapeutics; SEQ ID NO: 68) was biotinylated using an NH2-Biotin Labeling Kit (Dojindo Molecular Technologies), and then 100 μl of 1 μg/ml biotinylated recombinant IL34 in PBST/0.1% BSA was added to the wells of Reacti-Bind Streptavidin coated plates (Pierce) pre-blocked with SuperBlock blocking buffer (Pierce) according to the manufacturer's instructions.

T2 sequence (chain, as listed by the source): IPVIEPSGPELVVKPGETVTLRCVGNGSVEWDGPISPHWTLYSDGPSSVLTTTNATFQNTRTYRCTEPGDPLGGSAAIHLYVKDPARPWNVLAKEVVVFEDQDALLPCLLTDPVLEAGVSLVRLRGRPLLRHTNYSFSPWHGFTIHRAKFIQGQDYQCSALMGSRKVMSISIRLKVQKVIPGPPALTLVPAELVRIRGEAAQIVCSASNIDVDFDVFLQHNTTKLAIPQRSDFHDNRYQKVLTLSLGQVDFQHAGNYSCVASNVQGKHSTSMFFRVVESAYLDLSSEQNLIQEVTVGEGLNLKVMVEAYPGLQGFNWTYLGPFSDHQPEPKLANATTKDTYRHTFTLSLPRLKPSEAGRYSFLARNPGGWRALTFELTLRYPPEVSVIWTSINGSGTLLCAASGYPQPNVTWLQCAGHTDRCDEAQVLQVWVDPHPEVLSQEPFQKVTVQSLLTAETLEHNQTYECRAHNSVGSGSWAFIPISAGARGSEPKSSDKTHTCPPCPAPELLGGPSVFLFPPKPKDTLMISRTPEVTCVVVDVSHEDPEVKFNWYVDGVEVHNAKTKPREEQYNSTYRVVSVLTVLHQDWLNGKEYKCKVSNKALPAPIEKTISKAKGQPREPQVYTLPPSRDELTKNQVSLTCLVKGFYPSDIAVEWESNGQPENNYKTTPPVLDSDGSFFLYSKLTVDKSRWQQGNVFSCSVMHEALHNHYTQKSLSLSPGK
T5 sequence (P07333 20-506): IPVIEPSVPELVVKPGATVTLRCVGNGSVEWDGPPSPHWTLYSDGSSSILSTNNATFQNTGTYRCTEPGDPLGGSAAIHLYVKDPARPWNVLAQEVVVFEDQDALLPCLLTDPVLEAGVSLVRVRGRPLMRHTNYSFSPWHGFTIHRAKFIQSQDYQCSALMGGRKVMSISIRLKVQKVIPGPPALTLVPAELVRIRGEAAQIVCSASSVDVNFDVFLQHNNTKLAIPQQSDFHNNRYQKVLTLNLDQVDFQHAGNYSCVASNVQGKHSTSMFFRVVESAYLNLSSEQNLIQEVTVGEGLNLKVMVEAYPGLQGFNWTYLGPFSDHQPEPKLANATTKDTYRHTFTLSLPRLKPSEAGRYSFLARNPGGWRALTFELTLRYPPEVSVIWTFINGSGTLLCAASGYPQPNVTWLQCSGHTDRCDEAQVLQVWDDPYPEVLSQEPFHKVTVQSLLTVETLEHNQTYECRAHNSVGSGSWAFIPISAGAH
T4 sequence (chain, as listed by the source limits assumed): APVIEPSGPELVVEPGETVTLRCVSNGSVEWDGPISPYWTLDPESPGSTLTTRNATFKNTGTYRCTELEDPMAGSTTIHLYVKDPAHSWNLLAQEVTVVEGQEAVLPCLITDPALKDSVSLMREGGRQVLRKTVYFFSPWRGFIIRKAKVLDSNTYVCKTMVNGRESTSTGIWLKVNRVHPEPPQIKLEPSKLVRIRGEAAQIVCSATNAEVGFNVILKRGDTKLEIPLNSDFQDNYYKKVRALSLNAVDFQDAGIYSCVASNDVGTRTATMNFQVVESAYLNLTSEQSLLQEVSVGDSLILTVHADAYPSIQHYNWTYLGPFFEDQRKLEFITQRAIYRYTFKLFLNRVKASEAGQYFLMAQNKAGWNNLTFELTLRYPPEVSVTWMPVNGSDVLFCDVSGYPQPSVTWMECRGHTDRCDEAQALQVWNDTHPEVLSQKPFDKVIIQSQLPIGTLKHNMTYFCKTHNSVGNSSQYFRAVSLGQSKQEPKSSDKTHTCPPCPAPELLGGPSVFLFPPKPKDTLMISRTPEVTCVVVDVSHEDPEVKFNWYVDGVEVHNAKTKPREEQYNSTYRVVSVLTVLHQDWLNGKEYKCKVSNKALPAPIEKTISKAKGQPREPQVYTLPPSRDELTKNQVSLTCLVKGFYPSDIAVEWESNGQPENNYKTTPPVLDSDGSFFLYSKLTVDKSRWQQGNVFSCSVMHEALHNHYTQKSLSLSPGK
T3 sequence (chain, as listed by the source limits assumed): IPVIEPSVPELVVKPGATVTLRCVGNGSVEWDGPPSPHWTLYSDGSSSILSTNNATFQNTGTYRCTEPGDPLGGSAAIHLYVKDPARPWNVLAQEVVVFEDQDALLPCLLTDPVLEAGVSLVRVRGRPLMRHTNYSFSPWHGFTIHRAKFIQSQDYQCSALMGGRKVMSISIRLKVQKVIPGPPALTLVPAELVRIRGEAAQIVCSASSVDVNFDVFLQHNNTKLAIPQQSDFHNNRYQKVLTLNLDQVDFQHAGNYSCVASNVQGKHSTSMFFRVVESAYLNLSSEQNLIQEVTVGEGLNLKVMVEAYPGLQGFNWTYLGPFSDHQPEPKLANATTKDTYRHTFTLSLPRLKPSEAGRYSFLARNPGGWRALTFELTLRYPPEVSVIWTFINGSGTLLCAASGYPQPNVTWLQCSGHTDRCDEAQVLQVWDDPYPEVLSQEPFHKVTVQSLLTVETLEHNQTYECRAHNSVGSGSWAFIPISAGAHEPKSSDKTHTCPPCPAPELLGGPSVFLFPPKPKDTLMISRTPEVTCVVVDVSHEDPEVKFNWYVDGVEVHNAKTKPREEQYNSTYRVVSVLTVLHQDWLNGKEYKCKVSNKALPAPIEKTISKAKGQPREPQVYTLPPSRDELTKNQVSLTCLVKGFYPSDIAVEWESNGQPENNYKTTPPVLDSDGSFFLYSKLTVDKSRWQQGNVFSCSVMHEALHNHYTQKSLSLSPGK
T1 sequence (P07333 20-972): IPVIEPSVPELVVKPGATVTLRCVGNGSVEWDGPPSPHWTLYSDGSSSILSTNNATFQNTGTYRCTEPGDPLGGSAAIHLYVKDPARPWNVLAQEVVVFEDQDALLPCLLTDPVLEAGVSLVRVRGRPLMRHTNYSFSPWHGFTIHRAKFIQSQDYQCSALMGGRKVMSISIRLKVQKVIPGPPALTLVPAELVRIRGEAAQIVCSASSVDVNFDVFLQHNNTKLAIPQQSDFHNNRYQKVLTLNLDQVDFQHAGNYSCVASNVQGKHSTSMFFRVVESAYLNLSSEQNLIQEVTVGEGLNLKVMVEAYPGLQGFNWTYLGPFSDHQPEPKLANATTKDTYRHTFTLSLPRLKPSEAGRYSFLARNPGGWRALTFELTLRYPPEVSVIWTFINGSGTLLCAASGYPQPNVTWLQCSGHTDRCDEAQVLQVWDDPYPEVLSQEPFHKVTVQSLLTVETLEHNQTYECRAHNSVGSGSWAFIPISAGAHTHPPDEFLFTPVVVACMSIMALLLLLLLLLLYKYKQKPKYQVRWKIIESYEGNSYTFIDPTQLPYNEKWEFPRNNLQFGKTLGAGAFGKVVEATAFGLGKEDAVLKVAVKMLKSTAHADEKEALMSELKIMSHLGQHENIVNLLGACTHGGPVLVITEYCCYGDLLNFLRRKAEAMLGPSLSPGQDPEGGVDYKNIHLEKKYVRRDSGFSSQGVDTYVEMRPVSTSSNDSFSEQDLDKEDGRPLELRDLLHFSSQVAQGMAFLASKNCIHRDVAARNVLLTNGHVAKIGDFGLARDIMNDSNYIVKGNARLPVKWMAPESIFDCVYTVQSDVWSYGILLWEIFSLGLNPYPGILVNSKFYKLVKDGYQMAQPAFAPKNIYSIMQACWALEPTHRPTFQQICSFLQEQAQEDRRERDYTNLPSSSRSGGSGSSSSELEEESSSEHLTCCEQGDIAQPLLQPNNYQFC

Binder | IC50, inhibition of CSF1-induced CSF1R phosphorylation (head prints 'Human CSF1/Human CSF1R ECD IC50') [1] | IC50, inhibition of IL34-induced CSF1R phosphorylation (head prints 'Human IL34/Human CSF1R ECD IC50') [1] | IC50 (read off the curve), IL34-induced CSF1R phosphorylation [2] | EC50 (cynoCSF1R ECD-Fc [3]) | EC50 (hCSF1R ECD.506-Fc) | IC50 (cynoCSF1R ECD-Fc [4]) | IC50 (cynoCSF1R ECD-Fc [5]) | binding result (mCSF1R ECD-Fc) | IC50 (read off the curve), CSF1-induced CSF1R phosphorylation [6] | IC50 (cynoCSF1R ECD-Fc [7]) | CSF1 blocking IC50 (ligand-induced CSF1R phosphorylation in CHO cells) [8] | IL34 blocking IC50 (ligand-induced CSF1R phosphorylation in CHO cells) [8] | Kd (hCSF1R ECD.506) | koff (hCSF1R ECD.506) | kon (hCSF1R ECD.506) | IC50 (read off the curve), CSF1-induced CSF1R phosphorylation [9] | IC50 (read off the curve), IL34-induced CSF1R phosphorylation [10] | IC50 (cynoCSF1R ECD-Fc [11])
B1 | 0.577 µg/mL | 0.994 µg/mL | ~1 µg/mL | 0.0201 µg/mL | 0.0176 µg/mL | 0.0435 µg/mL | 0.0521 µg/mL | no binding (tested: 2000 ng/ml) |  |  |  |  |  |  |  |  |  | 
B2 | 0.307 µg/mL | 0.312 µg/mL |  | 0.0152 µg/mL | 0.0114 µg/mL |  | 0.0295 µg/mL | no binding (tested: 2000 ng/ml) | ~0.3 µg/mL | 0.022 µg/mL |  |  |  |  |  |  |  | 
B3 | 0.291 µg/mL | 0.343 µg/mL | ~0.4 µg/mL | 0.0216 µg/mL | 0.0131 µg/mL | 0.0325 µg/mL | 0.0504 µg/mL | no binding (tested: 2000 ng/ml) |  |  | 0.127 µg/mL | 0.338 µg/mL | 440 pM | 0.00054 s⁻¹ | 1.22e+06 M⁻¹ s⁻¹ |  |  | 
B4 | 0.419 µg/mL | 0.578 µg/mL | ~0.6 µg/mL | 0.0203 µg/mL | 0.0133 µg/mL | 0.0308 µg/mL | 0.0486 µg/mL | no binding (tested: 2000 ng/ml) |  |  |  |  | 400 pM | 0.000609 s⁻¹ | 1.51e+06 M⁻¹ s⁻¹ |  |  | 
B5 | 0.928 µg/mL | 0.615 µg/mL |  | 0.467 µg/mL | 0.0146 µg/mL | 0.0155 µg/mL |  | no binding (tested: 2000 ng/ml) |  |  |  |  | 1040 pM | 0.00369 s⁻¹ | 3.54e+06 M⁻¹ s⁻¹ | ~1 µg/mL | ~0.6 µg/mL | > 2 µg/mL
